What was measured:
Fluorogenic AMC release [1] = substrate: CC(=O)N[C@H](C(=O)N[C@@H](CC(C)C)C(=O)N[C@H](C(=O)N[C@@H](CCCCN)C(=O)Nc1ccc2c(C)cc(=O)oc2c1)[C@@H](C)O)C(C)C; experiment: Fluorogenic AMC release; format: biochemical; settings: pH 7.4; 25.0 °C
Fluorogenic AMC release [2] = substrate: CC(=O)N[C@H](C(=O)N[C@@H](CC(C)C)C(=O)NCC(=O)N[C@@H](CCCCN)C(=O)Nc1ccc2c(C)cc(=O)oc2c1)C(C)C; experiment: Fluorogenic AMC release; format: biochemical; settings: pH 7.4; 25.0 °C

B1: PmC11 (Parabacteroides merdae) (protein)
chain: ETPEPRTTRTILVYMMANNSLNSFASKNIESMIEGATSKNLNGGNLIVYYAPAGSPPELLRIKEENGVVKKIHLKDYEKQNSADPDVMRSVIGEVVSQYPADSYGLVLWSHGTAWLPSDYQNKLKAFGQDGNNWMEIDDLAKGLPDDLFDFILFDACYMASVECTYELRNKAEYILASPTETMADGWPYEEMMPQLFATDLQLEKVGETFYNHYLNNTYPYATVSLTKTSELDNLKSVTHDILADKTESDIYSLDPKKMQRLEYLYRSPGMLYDFNDYIKQLATAEQYDRFISCLDKAVVYKAHTPKSYYAAIGNALPIKSYCGLTIFVPQESLPKMLEWYKQRVGWYKAVYE
Fluorogenic AMC release [1]
  Km: 20.4 µM
Fluorogenic AMC release [2]
  Km: ~185.8 µM

Reference: paper PMC5575927
